Reference: the Human Domainome abundance scans (Beltran et al. 2025)
± gives the uncertainty stated by the source.

Assay: abundance fitness (aPCA) (normalised: wild type 0, dead -1); higher = more abundant; growth selection in yeast, the domain comes from the species named
Details: Homo sapiens

Substance | abundance fitness
Lipoamide acyltransferase component of branched-chain alpha-keto acid dehydrogenase complex, mitochondrial A176C, P11182 | -0.173 ± 0.051
Lipoamide acyltransferase component of branched-chain alpha-keto acid dehydrogenase complex, mitochondrial N184P, P11182 | -1.08 ± 0.4
Lipoamide acyltransferase component of branched-chain alpha-keto acid dehydrogenase complex, mitochondrial V177F, P11182 | -0.818 ± 0.076
Lipoamide acyltransferase component of branched-chain alpha-keto acid dehydrogenase complex, mitochondrial N184R, P11182 | -0.097 ± 0.072
Lipoamide acyltransferase component of branched-chain alpha-keto acid dehydrogenase complex, mitochondrial L172R, P11182 | -0.347 ± 0.049
Lipoamide acyltransferase component of branched-chain alpha-keto acid dehydrogenase complex, mitochondrial G195L, P11182 | -0.927 ± 0.055
Lipoamide acyltransferase component of branched-chain alpha-keto acid dehydrogenase complex, mitochondrial T174L, P11182 | -0.724 ± 0.059
Lipoamide acyltransferase component of branched-chain alpha-keto acid dehydrogenase complex, mitochondrial D197C, P11182 | -0.319 ± 0.095
Lipoamide acyltransferase component of branched-chain alpha-keto acid dehydrogenase complex, mitochondrial K196G, P11182 | -0.159 ± 0.036
Lipoamide acyltransferase component of branched-chain alpha-keto acid dehydrogenase complex, mitochondrial I200P, P11182 | -0.483 ± 0.05
Lipoamide acyltransferase component of branched-chain alpha-keto acid dehydrogenase complex, mitochondrial R179N, P11182 | -0.156 ± 0.079
Lipoamide acyltransferase component of branched-chain alpha-keto acid dehydrogenase complex, mitochondrial L172A, P11182 | -0.327 ± 0.053
Lipoamide acyltransferase component of branched-chain alpha-keto acid dehydrogenase complex, mitochondrial E190G, P11182 | -0.409 ± 0.038
Lipoamide acyltransferase component of branched-chain alpha-keto acid dehydrogenase complex, mitochondrial N207C, P11182 | -0.302 ± 0.1
Lipoamide acyltransferase component of branched-chain alpha-keto acid dehydrogenase complex, mitochondrial I200E, P11182 | -0.558 ± 0.072
Lipoamide acyltransferase component of branched-chain alpha-keto acid dehydrogenase complex, mitochondrial N185V, P11182 | -0.744 ± 0.1
Lipoamide acyltransferase component of branched-chain alpha-keto acid dehydrogenase complex, mitochondrial S194I, P11182 | -0.738 ± 0.12
Lipoamide acyltransferase component of branched-chain alpha-keto acid dehydrogenase complex, mitochondrial L206D, P11182 | 0.01 ± 0.065
Lipoamide acyltransferase component of branched-chain alpha-keto acid dehydrogenase complex, mitochondrial M182I, P11182 | -0.408 ± 0.24
